Measurements taken from patent publication US20250003976A1, “ANTIBODIES TARGETING PHOSPHORYLATED SEVEN-TRANSMEMBRANE RECEPTORS” (7TM ANTIBODIES GMBH, priority 2021, published 2025).
Values belong to the compound of their own block, whether it stands above or below them.

Assays:
MOP [1] = target: T1, MOP (Mus musculus, UniProt P42866); settings: 60 min of agonist exposure
MOP [2] = target: T1, MOP; settings: 60 min of agonist exposure; remark: listed apart in the source
μ-opioid receptor (MOP) = μ-opioid receptor (MOP) (Mus musculus, UniProt P42866)
μ-opioid receptor (MOP), sequence (P42866 whole entry): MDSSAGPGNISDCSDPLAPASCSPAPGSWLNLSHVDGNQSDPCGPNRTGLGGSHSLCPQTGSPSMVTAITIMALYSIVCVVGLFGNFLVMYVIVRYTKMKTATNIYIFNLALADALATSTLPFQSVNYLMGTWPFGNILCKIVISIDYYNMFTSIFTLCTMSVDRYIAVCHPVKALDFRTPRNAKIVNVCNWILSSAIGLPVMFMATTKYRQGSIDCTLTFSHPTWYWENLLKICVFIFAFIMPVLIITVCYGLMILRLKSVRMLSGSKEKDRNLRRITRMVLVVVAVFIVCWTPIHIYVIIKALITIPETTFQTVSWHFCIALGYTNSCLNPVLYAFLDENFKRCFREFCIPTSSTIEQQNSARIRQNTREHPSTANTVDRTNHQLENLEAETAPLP

[3] = target: hemagglutinin (HA)-tagged mouse µ-opioid receptor (MOP), not phosphorylated (mouse) (UniProt P42866); experiment: saturation binding of [3H]DAMGO to membranes of HA-MOP-transfected HEK293 cells
hemagglutinin (HA)-tagged mouse µ-opioid receptor (MOP), not phosphorylated (mouse), sequence (P42866 whole entry): as above

[4] = target: hemagglutinin (HA)-tagged mouse µ-opioid receptor (MOP), phosphorylated after DAMGO stimulation (mouse) (UniProt P42866); experiment: 7TM phosphorylation assay: HA-MOP of DAMGO-treated cells on anti-HA magnetic beads
[5] = target: hemagglutinin (HA)-tagged mouse µ-opioid receptor (MOP), not phosphorylated (mouse) (UniProt P42866); experiment: 7TM phosphorylation assay: HA-MOP of untreated cells on anti-HA magnetic beads
[6] = target: hemagglutinin (HA)-tagged mouse µ-opioid receptor (MOP), phosphorylated after DAMGO stimulation (mouse) (UniProt P42866); experiment: 7TM phosphorylation assay: HA-MOP on anti-HA magnetic beads, rabbit primary antibody, enzyme-labeled secondary antibody

T1 sequence (P42866 whole entry): as above

Compound: C[C@@H](NC(=O)[C@@H](N)Cc1ccc(O)cc1)C(=O)NCC(=O)N(C)[C@@H](Cc1ccccc1)C(=O)NCCO [DAMGO, [D-Ala2,N-MePhe4,Gly-ol]-enkephalin]
β-arrestin1 and β-arrestin2 recruitment (MOP [1]): virtually identical to those of DAMGO-induced MOP phosphorylation | recruitment of GRK2 and GRK3 to MOP (MOP [2]): high efficiency | extent of MOP phosphorylation resulting from GRK2/3 recruitment (μ-opioid receptor (MOP)): full phosphorylation

Compound: [D-Ala2,N-MePhe4,Gly-ol]-enkephalin (DAMGO) (peptide)
functional MOPs per cell (saturation binding) (MOPs per cell) [3]: 300000

optical density (OD) read at 405 nm [4]: 0.8 OD at 405 nm | optical density (OD) read at 405 nm [5]: 0.8 OD at 405 nm
Compound: anti-np-MOP antibody (7TM0319N)

optical density (OD) read at 405 nm [5]: 0.2 OD at 405 nm | optical density (OD) read at 405 nm [6]: 1.2 OD at 405 nm
Compound: anti-pS375-MOP antibody (7TM0319C)

Compound: CCCCCCCCCCCCCC(=O)O[C@@H]1[C@@H](C)[C@@]2(O)[C@@H](C=C(CO)C[C@]3(O)C(=O)C(C)=C[C@@H]23)[C@@H]2C(C)(C)[C@]12OC(C)=O [PMA, phorbol 12-myristate 13-acetate]
T370 phosphorylation of MOP (heterologous, PKC activation) (μ-opioid receptor (MOP)): potent and selective phosphorylation of T370
